{"source": "patent US20190322720A1", "key": {"[1]": {"biological_target": "MUC5AC expressed by CFPAC-1 pancreatic tumor cells (human) (UniProt P98088)", "sequence (P98088 other isoform, or with tags, fused parts or gaps limits assumed)": "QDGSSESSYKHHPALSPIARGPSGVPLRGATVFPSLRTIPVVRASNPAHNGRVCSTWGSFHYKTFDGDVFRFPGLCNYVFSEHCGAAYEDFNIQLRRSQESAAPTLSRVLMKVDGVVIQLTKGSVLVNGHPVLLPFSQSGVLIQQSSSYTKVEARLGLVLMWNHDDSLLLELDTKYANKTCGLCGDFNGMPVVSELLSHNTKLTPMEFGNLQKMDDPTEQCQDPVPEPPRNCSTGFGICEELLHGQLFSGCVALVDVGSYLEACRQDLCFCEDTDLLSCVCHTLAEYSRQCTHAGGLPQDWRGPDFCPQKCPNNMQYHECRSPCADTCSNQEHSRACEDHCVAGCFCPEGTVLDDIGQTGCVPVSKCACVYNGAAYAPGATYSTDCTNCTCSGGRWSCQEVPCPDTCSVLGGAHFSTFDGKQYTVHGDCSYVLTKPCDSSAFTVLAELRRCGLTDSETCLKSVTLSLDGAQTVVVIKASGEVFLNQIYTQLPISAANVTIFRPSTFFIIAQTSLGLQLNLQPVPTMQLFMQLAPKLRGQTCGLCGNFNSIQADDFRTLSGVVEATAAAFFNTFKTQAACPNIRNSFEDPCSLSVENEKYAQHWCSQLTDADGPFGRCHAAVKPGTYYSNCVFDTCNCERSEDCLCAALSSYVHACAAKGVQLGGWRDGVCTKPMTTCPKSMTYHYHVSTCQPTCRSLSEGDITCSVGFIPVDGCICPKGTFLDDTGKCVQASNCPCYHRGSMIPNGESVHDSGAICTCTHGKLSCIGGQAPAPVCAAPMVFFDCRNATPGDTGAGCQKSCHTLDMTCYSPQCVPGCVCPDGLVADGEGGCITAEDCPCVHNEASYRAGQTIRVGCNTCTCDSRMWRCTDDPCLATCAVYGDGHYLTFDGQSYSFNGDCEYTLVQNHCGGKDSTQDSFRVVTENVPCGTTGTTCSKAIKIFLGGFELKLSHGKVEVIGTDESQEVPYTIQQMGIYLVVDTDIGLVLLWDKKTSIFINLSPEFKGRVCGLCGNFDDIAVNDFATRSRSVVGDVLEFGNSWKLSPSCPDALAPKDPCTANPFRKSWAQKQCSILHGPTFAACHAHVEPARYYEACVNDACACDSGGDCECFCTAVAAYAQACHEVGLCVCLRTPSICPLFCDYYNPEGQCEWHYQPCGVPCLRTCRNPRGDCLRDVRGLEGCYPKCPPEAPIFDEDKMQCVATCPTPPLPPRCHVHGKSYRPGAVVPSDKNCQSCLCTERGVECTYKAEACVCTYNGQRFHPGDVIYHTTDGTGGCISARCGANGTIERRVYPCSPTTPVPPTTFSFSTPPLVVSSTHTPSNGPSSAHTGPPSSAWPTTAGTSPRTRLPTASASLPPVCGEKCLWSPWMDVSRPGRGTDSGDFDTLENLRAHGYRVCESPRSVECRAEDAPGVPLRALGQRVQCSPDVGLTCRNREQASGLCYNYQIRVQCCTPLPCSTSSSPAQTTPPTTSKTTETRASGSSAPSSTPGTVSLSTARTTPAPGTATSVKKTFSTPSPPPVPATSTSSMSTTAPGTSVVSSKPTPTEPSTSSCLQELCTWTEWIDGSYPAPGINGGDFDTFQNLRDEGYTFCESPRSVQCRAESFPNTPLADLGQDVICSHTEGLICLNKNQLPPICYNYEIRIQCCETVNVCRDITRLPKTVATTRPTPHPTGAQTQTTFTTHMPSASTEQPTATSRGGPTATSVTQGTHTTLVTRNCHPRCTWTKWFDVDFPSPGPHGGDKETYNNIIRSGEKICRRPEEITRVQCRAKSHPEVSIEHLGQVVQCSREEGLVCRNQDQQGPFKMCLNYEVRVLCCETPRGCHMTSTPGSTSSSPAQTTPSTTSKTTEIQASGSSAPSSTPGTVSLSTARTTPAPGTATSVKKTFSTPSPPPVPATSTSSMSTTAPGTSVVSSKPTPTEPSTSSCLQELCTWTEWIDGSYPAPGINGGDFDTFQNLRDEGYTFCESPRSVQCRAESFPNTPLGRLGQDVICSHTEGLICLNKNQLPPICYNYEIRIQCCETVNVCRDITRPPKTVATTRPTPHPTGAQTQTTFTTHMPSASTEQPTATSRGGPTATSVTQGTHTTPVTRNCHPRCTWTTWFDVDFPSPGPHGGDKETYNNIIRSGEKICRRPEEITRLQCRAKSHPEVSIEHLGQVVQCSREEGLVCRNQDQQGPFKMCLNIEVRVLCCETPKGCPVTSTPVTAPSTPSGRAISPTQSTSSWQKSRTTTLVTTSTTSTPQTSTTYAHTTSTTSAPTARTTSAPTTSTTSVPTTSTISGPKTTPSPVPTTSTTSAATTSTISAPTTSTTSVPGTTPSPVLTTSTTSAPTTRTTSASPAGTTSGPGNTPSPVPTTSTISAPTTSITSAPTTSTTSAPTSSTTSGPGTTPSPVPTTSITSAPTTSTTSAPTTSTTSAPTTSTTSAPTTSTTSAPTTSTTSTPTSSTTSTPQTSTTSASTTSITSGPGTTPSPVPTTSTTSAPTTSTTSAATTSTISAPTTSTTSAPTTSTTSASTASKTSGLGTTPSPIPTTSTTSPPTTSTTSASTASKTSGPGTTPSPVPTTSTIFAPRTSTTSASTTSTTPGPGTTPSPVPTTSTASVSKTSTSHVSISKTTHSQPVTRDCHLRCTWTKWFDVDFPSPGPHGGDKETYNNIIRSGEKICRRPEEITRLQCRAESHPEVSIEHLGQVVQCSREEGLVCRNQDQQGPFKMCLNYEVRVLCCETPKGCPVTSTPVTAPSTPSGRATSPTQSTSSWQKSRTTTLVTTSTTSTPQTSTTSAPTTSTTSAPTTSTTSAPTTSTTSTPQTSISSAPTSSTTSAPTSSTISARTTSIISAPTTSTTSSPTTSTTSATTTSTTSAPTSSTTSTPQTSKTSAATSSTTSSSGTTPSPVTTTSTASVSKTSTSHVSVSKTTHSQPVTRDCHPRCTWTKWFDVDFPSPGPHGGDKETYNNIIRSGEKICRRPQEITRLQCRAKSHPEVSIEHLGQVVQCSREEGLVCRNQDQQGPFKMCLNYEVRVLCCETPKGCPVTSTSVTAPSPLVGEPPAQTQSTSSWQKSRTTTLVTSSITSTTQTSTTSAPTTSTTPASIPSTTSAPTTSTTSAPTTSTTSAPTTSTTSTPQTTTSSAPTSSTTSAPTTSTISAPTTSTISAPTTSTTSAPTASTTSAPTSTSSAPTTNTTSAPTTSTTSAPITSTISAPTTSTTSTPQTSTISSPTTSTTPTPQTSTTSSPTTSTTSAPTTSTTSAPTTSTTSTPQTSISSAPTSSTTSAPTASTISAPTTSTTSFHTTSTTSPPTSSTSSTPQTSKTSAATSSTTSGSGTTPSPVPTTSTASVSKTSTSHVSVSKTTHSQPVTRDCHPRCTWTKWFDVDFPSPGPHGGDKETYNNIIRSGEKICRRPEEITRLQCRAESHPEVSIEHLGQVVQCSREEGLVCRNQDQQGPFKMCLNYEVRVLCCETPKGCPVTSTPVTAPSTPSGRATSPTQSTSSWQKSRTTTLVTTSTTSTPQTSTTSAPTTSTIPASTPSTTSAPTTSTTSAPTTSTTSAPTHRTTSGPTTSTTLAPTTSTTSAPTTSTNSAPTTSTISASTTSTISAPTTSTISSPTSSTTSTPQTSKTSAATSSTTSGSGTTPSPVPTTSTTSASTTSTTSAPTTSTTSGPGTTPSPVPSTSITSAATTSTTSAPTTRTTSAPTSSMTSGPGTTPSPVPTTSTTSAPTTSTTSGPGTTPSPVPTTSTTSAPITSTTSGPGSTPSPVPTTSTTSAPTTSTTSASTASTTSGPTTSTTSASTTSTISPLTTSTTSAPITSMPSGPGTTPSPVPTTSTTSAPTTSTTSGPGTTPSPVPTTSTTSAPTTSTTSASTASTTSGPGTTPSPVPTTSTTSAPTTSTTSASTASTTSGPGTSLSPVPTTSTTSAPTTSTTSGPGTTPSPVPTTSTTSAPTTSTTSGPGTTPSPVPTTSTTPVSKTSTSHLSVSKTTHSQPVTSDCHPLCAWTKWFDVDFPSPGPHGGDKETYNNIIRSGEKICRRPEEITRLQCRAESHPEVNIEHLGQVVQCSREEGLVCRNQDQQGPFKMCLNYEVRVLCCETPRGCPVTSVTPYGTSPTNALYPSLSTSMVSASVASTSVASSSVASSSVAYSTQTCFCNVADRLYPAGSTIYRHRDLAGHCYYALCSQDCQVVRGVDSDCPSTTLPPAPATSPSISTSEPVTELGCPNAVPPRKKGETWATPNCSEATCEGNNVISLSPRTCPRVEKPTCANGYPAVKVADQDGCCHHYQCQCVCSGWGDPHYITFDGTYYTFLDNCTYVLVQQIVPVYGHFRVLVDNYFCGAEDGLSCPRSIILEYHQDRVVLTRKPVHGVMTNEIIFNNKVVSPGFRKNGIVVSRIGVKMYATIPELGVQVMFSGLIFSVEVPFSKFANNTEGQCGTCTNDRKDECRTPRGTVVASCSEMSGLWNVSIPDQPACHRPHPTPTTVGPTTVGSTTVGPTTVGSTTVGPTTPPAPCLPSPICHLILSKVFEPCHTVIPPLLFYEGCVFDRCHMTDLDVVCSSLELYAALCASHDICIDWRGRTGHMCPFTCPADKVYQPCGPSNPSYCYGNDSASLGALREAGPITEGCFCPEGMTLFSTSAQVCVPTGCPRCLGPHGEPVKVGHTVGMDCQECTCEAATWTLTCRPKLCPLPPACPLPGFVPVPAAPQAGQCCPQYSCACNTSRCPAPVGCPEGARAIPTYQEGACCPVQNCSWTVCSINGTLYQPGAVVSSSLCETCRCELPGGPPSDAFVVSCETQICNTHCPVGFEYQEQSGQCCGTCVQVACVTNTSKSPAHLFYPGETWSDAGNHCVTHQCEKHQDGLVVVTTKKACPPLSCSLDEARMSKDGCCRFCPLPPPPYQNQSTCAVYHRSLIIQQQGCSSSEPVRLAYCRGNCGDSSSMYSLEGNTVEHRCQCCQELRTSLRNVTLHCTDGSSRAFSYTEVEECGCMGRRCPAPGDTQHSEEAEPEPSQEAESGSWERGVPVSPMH", "experiment": "immunofluorescence, fixed and permeabilized CFPAC-1 cells, 2 µg/ml"}, "[2]": {"biological_target": "MUC5AC (human) (UniProt P98088)", "sequence (P98088 other isoform, or with tags, fused parts or gaps limits assumed)": "as above", "experiment": "FACS, Colo-205 cells, 2 µg/ml FITC antibody"}, "[3]": {"biological_target": "MUC5AC (human) (UniProt P98088)", "experiment": "flow cytometry, SW480 colorectal tumor cells"}, "[4]": {"biological_target": "MUC5AC expressed by LS174T colorectal tumor cells (human) (UniProt P98088)", "sequence (P98088 other isoform, or with tags, fused parts or gaps limits assumed, change not shown)": "as the sequence (P98088 other isoform, or with tags, fused parts or gaps limits assumed) above", "experiment": "FACS, LS174 cells, 2 µg/ml FITC antibody"}, "[5]": {"biological_target": "MUC5AC expressed by CFPAC-1 pancreatic tumor cells (human) (UniProt P98088)", "experiment": "FACS, CFPAC cells, 2 µg/ml FITC antibody"}, "[6]": {"biological_target": "MUC5AC (human) (UniProt P98088)", "experiment": "FACS, SW480 cells, 2 µg/ml FITC antibody"}, "[7]": {"biological_target": "MUC5AC expressed by CFPAC-1 pancreatic tumor cells (human) (UniProt P98088)", "experiment": "flow cytometry, CFPAC-1 pancreatic tumor cells"}, "[8]": {"biological_target": "MUC5AC (human) (UniProt P98088)", "experiment": "flow cytometry, Colo-205 colorectal tumor cells"}, "[9]": {"biological_target": "MUC5AC expressed by LS174T colorectal tumor cells (human) (UniProt P98088)", "experiment": "flow cytometry, LS174T colorectal tumor cells"}, "[10]": {"biological_target": "MUC5AC expressed by CFPAC-1 pancreatic tumor cells (human) (UniProt P98088)", "experiment": "rosetting assay, antibody-coupled beads on CFPAC-1 cells"}}}
{"substance": "1-13M1 (Abcam Inc.) (antibody)", "values": [{"measurement": "% of cells stained", "setting": "[1]", "result": 100, "unit": "%"}]}
{"substance": "2-11M1 (Abcam Inc.) (antibody)", "values": [{"measurement": "% of cells stained", "setting": "[1]", "result": "< 5", "unit": "%"}]}
{"substance": "Isotype control antibody", "values": [{"measurement": "Percent positive", "setting": "[2]", "result": 2.33, "unit": "%"}, {"measurement": "% Cells Stained", "setting": "[3]", "result": 3.38, "unit": "%"}, {"measurement": "mfi", "setting": "[3]", "result": 56, "unit": "mfi"}, {"measurement": "Percent positive", "setting": "[4]", "result": 3.85, "unit": "%"}, {"measurement": "Percent positive", "setting": "[5]", "result": 1.79, "unit": "%"}, {"measurement": "Percent positive", "setting": "[6]", "result": 3.38, "unit": "%"}, {"measurement": "% Cells Stained", "setting": "[7]", "result": 1.79, "unit": "%"}, {"measurement": "mfi", "setting": "[7]", "result": 25, "unit": "mfi"}, {"measurement": "% Cells Stained", "setting": "[8]", "result": 2.33, "unit": "%"}, {"measurement": "mfi", "setting": "[8]", "result": 34, "unit": "mfi"}, {"measurement": "% Cells Stained", "setting": "[9]", "result": 3.85, "unit": "%"}, {"measurement": "mfi", "setting": "[9]", "result": 35, "unit": "mfi"}]}
{"substance": "human IgG (antibody)", "values": [{"measurement": "Rosetted cells (>8 beads)", "setting": "[10]", "result": 0, "unit": "%"}]}
